# B1: Cytochrome c', P00149 (parent)
# chain: MKLRIATIAGLVVLGSGFAVAQTDVIAQRKAILKQMGEATKPIAAMLKGEAKFDQAVVQKSLAAIADDSKKLPALFPADSKTGGDTAALPKIWEDKAKFDDLFAKLAAAATAAQGTIKDEASLKANIGGVLGNCKSCHDDFRAKKS
# Variants of: B1
# Details: Rhodopseudomonas palustris (strain ATCC BAA-98 / CGA009); pH 6.5; 25 °C; GdnHCl; CD; MES 20 mM; NaCl 40 mM; structure 1A7V; whole UniProt chain shown
Variant,denaturant m value [kcal/mol/M],denaturant midpoint (higher = more stable) [M],unfolding free energy [kcal/mol]
MKLRIATIAGLVVLGSGFAVAQTDVIAQRKAILKQMGEATKPIAAMLKGEAKFDQAVVQKSLAAIADDSKKLPALFPADSKTGGDTHALPKIWEDKAKFDDLFAKLAAAATAAQGTIKDEASLKANIGGVLGNCKSCHDDFRAKKS [A87H],4.88,1.39,6.79
MKLRIATIAGLVVLGSGFAVAQTDVIAQRKAILKQMGEATKPIAAMLKGEAKFDQAVVQKSLAAIADDSKKLPALFPAHSKTGGDTAALPKIWEDKAKFDDLFAKLAAAATAAQGTIKDEASLKANIGGVLGNCKSCHDDFRAKKS [D79H],4.8,1.4,6.72
MKLRIATIAGLVVLGSGFAVAQTDVIAQRKAILKQMGEATKPIAAMLKGEAKFDQAVVQKSLAAIADDSKKLPALFPADSKTGGDTAALPKIWEDKAKFDDLFAHLAAAATAAQGTIKDEASLKANIGGVLGNCKSCHDDFRAKKS [K105H],5.32,1.11,5.89
MKLRIATIAGLVVLGSGFAVAQTDVIAQRKAILHQMGEATKPIAAMLKGEAKFDQAVVQKSLAAIADDSKKLPALFPADSKTGGDTAALPKIWEDKAKFDDLFAKLAAAATAAQGTIKDEASLKANIGGVLGNCKSCHDDFRAKKS [K34H],4.91,1.66,8.17
MKLRIATIAGLVVLGSGFAVAQTDVIAQRKAILKQMGEATKPIAAMLKGEAKFDQAVVQKSLAAIADDSKKLPALFPADSKTGGDTAALPKIWEDKAKFDDLFAKLAAAATAAQGTIHDEASLKANIGGVLGNCKSCHDDFRAKKS [K118H],5.28,1.29,6.8
MKLRIATIAGLVVLGSGFAVAQTDVIAQRKAILKQMGEATKPIAAMLKGEAKFDQAVVQKSLAAIADDSKKLPALFPADSKTGGDTAALPKIWEDKAKFDDLFAKLAAAATAAQGTIKDEASLKHNIGGVLGNCKSCHDDFRAKKS [A125H],5.59,1.09,6.08
MKLRIATIAGLVVLGSGFAVAQTDVIAQRKAILKQMGEATKPIAAMLKGEAKFDQAVVQKSLAAIADDSKKLPALFPADSKTGGDTAALPKIWEDKAKFDDLFAKLAAAATHAQGTIKDEASLKANIGGVLGNCKSCHDDFRAKKS [A112H],5.75,1.23,7.07
MKLRIATIAGLVVLGSGFAVAQTHVIAQRKAILKQMGEATKPIAAMLKGEAKFDQAVVQKSLAAIADDSKKLPALFPADSKTGGDTAALPKIWEDKAKFDDLFAKLAAAATAAQGTIKDEASLKANIGGVLGNCKSCHDDFRAKKS [D24H],5.08,1.46,7.41
MKLRIATIAGLVVLGSGFAVAQTDVIAQRKAILKQMGEATKPIAAMLKGEAKFDQAVVQKSLAAIADDSKKLPALFPADSKTGGDTAALPKIWHDKAKFDDLFAKLAAAATAAQGTIKDEASLKANIGGVLGNCKSCHDDFRAKKS [E94H],5.08,1.13,5.76
MKLRIATIAGLVVLGSGFAVAQTDVIAQRKAILKQMGEATKPIAAMLKGEAKFDQAVVQKSLAAIADDSHKLPALFPADSKTGGDTAALPKIWEDKAKFDDLFAKLAAAATAAQGTIKDEASLKANIGGVLGNCKSCHDDFRAKKS [K70H],4.66,1.45,6.75
MKLRIATIAGLVVLGSGFAVAQTDVIAQRKAILKQMGEATKPIAAMLKGEAHFDQAVVQKSLAAIADDSKKLPALFPADSKTGGDTAALPKIWEDKAKFDDLFAKLAAAATAAQGTIKDEASLKANIGGVLGNCKSCHDDFRAKKS [K52H],5.04,1.47,7.41
